± gives the uncertainty stated by the source.

The nature of the first series: amyloid nucleation score (Sup35N fusion, yeast selection) (log enrichment); library NNK1; higher = more nucleation; inactive = no reads after selection. The method, boiled down: (§1)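 Peptides of 20 random codons, each fused to Sup35N, were expressed in psi-negative yeast. Cells were induced with 100 μM copper sulfate for 24 hours and grown 7 days at 30°C on medium lacking adenine and uracil, and plasmid inserts before and after selection were Illumina-sequenced. Nucleation scores are DiMSum log enrichments of output over input reads, centred on the mode score of non-aggregating sequences, and sequences under 100 input reads were excluded.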
Regarding AADGGYCRCGNDRKCLYAFR, the amyloid nucleation score entry is “inactive”.
Consider AAFSDPRNRLMKPVELKHAL, for which the amyloid nucleation score worked out at 1.31 ± 0.9.
Still for that read-out and setting: for AAVGALGKSRSL the value was 1.17 ± 0.73; for ACQGWGTWEELGHDERTDLV, 0.817 ± 0.41.
On the same count and under the same terms, for ACQLLMCLCFFETKGLYLDG the value was 7.603 ± 0.053; for ACTGARCVRDQ, 0.452 ± 0.45.
In turn, ACTSLASFHYVLHPKYSCRV returned an amyloid nucleation score of 1.2 ± 0.76.
The same measure, in the same setting: then ADANCFRGWSRHHRTITQLR, with 0.296 ± 0.64; and ADDYCQPGKIGVNNGPHRKR, with -0.657 ± 1.7; and ADYVKMNRDFRVGTTYDMST, with 1.18 ± 0.65.
AESSPSVG: the amyloid nucleation score came to 0.271 ± 0.57.
Take AEWVYITMGYAWLKRSNVVE: the amyloid nucleation score worked out at 0.092 ± 0.33.
AFFNCPSTNTVWQRFNANRF had an amyloid nucleation score of 1.72 ± 0.14.
For the substance AFFVAVCASWFPGLYRY, the amyloid nucleation score came to 0.298 ± 0.23.
Take AFLCESFSLVWYWLLWEWRW: the amyloid nucleation score is -0.126 ± 0.77.
AFNGVSNLEWL displayed an amyloid nucleation score of -0.18 ± 1.7.
The same measure, in the same setting: then AFRQVRKIVQAGTGGVQ, with -0.324 ± 0.58.
As for AFRRRGSVPRGRASPHIFVV, the amyloid nucleation score stood at 7.948 ± 0.065.

Another series in a line: amyloid nucleation score (Sup35N fusion, yeast selection) (log enrichment); library NNK2; higher = more nucleation; inactive = no reads after selection. In a few lines:
as §1
YIIGSNEFSEHETDLNGYQT gave an amyloid nucleation score of -0.938 ± 0.62.
The same measure, in the same setting: for YIIPGLKFLS the value was “inactive”; for YIKASKMPAEA, -0.216 ± 0.55; for YIKWQI, 2.94 ± 0.065.
The same measure, in the same setting: then YILLFSVGICPPRSWLIYCP, with 4.21 ± 0.11; and YINKKLGEAKGRDLLVRLGQ, with 3.63 ± 0.07.
As for YIRLQAIQSEVERSSVPVIK, the amyloid nucleation score was 2.16 ± 0.083.
Turning to YISSKYYWSTVKCFAFNTFH, the amyloid nucleation score is -0.594 ± 0.42.
Same read-out and setting: for YIVYCLFDLLTPNKMWLSPQ the value was -0.661 ± 0.76; for YKLAWARYGCIAVCTMLRFP, 0.102 ± 1.1.
Take YKMILGCVVRVGYRILNCIR: the amyloid nucleation score turned out to be 0.295 ± 0.5.
The substance YKTIIRSVMSELSGSLRQSE yielded an amyloid nucleation score of 1.26 ± 0.11.
YKVLTSPRFKEDPFLYGCWI yielded an amyloid nucleation score of -0.353 ± 0.53.
On the same count and under the same terms, for YKWSQASTNGHARISSAQQS the value was 2.46 ± 0.11; for YKYSCFDRG, “inactive”; for YLCYNALNDFD, -0.445 ± 0.41.
Same read-out and setting: then YLIDFRTRWIRISKA, with -0.695 ± 0.61; and YLLFHYGFLN, with -1.1 ± 0.63.
Still for that read-out and setting: then YLLPSVTSVTY, with 0.993 ± 0.29.
Substance YLLYGWYTMLALHLALREHI yielded an amyloid nucleation score of -0.098 ± 0.79.
Same read-out and setting: then YLNGSSTTVSYRCWAMACSN, with -0.448 ± 0.76; and YLNSYNSC, with -1.31 ± 1.
On the same count and under the same terms, for YLQYPYCSSKSFARDDLVKY the value was 0.173 ± 0.79; for YLRCMRSLYSMNLCDAFNAA, “inactive”; for YLRDVYSSIFAPGMRYPQTR, 2.22 ± 0.094.
On the same count and under the same terms, for YLSQWLSEWGVQRYVESYAR the value was 0.445 ± 0.29; for YLVGRYETTVSTKMNKMRCW, -0.175 ± 0.53.
Substance YLWDTEDYMRMWAKRWEKAR came in with an amyloid nucleation score of 0.259 ± 0.56.
Same read-out and setting: then YLYKLFGDDFGDWFLICFFR, with “inactive”; and YLYSPLVMSSHYMLFT, with 5.125 ± 0.048; and YMASWVSSAGSFV, with 1.05 ± 0.29.
The same measure, in the same setting: for YMFAIHELNGEIIGPFTVNP the value was “inactive”; for YMKVGFARWMGRPG, 3.89 ± 0.06.
In turn, YMMMIDL yielded an amyloid nucleation score of -1.26 ± 0.64.
For YMNSSLARISPRGSRCERQ, the amyloid nucleation score was determined as 0.162 ± 0.38.
In the case of YMTWQFITACMLTCSKSILS, the amyloid nucleation score was 0.264 ± 0.49.
The same measure, in the same setting: for YMVEV the value was 0.171 ± 0.34; for YMYLVVCLIVSHDPVSVVEW, “inactive”.
For the substance YNCCVKISVSM, the amyloid nucleation score was 5.481 ± 0.042.
Still for that read-out and setting: for YNDSDFWGRVWSTHAPCKAT the value was -0.134 ± 1.1.
On the same count and under the same terms, then YNIHYMNVLIGALHL, with 8.327 ± 0.056; and YNSTR, with -0.082 ± 0.63; and YNSVELYFACLFLAHAVLVY, with “inactive”.
For YNSVFLRNLRSVGWTKAPLW, the amyloid nucleation score was -0.387 ± 0.76.
On the same count and under the same terms, then YNVDVFWYGLKFNDLVVVHF, with 3.73 ± 0.13; and YNVQFTSEIVSE, with 0.001 ± 0.35.
With YPCPAVVCSYAA, the amyloid nucleation score was determined as 0.705 ± 0.44.
The same measure, in the same setting: for YPKFYIWYYVYRLLALTCVY the value was -1.03 ± 0.37.
Turning to YPLCARILLNKDLWDGYLNS, the amyloid nucleation score result is “inactive”.
In the case of YPNSLYFRPYAFILTEMSHH, the amyloid nucleation score entry is “inactive”.
Regarding YPPIISRLQY, the amyloid nucleation score entry was “inactive”.
The same measure, in the same setting: for YPYSSWRGSVHCELGINGMG the value was 0.29 ± 0.77.
Still for that read-out and setting: then YQGMFKFRRFDNVSVVHAMR, with -0.359 ± 0.76; and YRCFGERIFLHAHRE, with “inactive”; and YRCLYGRKYVFRIEPIGIVH, with -0.676 ± 0.35.
Turning to YRFRAIVNIYRCDVGFF, the amyloid nucleation score was found to be 6.36 ± 0.075.
Take YRFYSLRMYKFWWLTLTLCL: the amyloid nucleation score was -1.12 ± 1.1.
In turn, YRHDVWLEE showed an amyloid nucleation score of 0.016 ± 0.23.
The same measure, in the same setting: for YRISMTAWSGRLSG the value was 4.03 ± 0.043; for YRLFWFNC, 1.74 ± 0.11; for YRLRMIFSMGMNNYVARWFH, -1.5 ± 1.1.
Still for that read-out and setting: then YRRCSRGNPGCDLAGFGRVV, with -0.08 ± 0.74.
Still for that read-out and setting: for YRSWIGYCSNDVSQTLCTVM the value was 9.164 ± 0.024; for YRVRCLHWHLIFDCNKKRSK, -0.331 ± 1.1; for YRVVKPCWLHFGDLIVWTWC, 0.351 ± 0.35.
Regarding YRVVTSTVKMRLWSRGVYDH, the amyloid nucleation score came out at 3.07 ± 0.088.
Same read-out and setting: for YRYKRLSRRV the value was -1.09 ± 0.78.
Still for that read-out and setting: for YSCFEMSCVGLGDVMIFIVL the value was 8.119 ± 0.037; for YSCRGEVKLKCDTSVGGPRR, 0.922 ± 0.2.
Still for that read-out and setting: for YSFFIIVSALIGRWAS the value was -0.894 ± 1.1; for YSGRSAWLMLCGRPVRR, 1.11 ± 0.33; for YSIIFWCFKWYLIQGWLECA, “inactive”.
In the case of YSLVLYWMWNCYRNRLDSGF, the amyloid nucleation score was -0.185 ± 0.63.
On the same count and under the same terms, for YSLYINLSNAGIGVYPLKPA the value was 7.252 ± 0.062; for YSQGDGL, -0.038 ± 0.65.
Regarding YSRGIWCNLDGHERCVSLST, the amyloid nucleation score was -0.266 ± 1.1.
YSSGF registered an amyloid nucleation score of -0.384 ± 0.39.
Same read-out and setting: then YSVEYFCHMFSLTCFNKF, with 7.388 ± 0.057.
YSVGCCLRYYRSN: the amyloid nucleation score worked out at 0.661 ± 0.8.
YSVIRS came in with an amyloid nucleation score of -0.171 ± 0.34.
YSVSVRLA registered an amyloid nucleation score of -0.553 ± 0.63.
The same measure, in the same setting: then YSYFSYVLRFMCSYLLALTQ, with “inactive”.
The same measure, in the same setting: for YSYILSFSSFFYFLRHCIKY the value was “inactive”; for YSYSSFLKVSGLSSDRLGYI, -0.133 ± 0.49; for YSYVIWYMHHCFWLNLRKFM, 0.979 ± 0.67.
For the substance YTAQRLNSTYI, the amyloid nucleation score was -0.506 ± 1.
Regarding YTIAECQSCPQNFLFFH, the amyloid nucleation score was determined as 5.96 ± 0.063.
YTLDMIIELSLDDGGYVVWG displayed an amyloid nucleation score of 4.756 ± 0.04.
On to YTLFLPTRNLRFLVVYGVLV, for which the amyloid nucleation score was 0.009 ± 0.61.
Still for that read-out and setting: for YTVRKNNLVVQESMFLSKCW the value was 0.855 ± 0.12; for YVIFHSEEMN, “inactive”; for YVLRQEVCIIPINSMFVNSF, 6.091 ± 0.045.
With YVMTFYTFTTIGGPGPWYGL, the amyloid nucleation score entry is “inactive”.
The same measure, in the same setting: for YVNDIRSKNPALEHEGDL the value was -0.58 ± 0.55; for YVNFIVFTDMIWDS, 4.94 ± 0.09.
On the same count and under the same terms, for YVQSVHFSSMILQINPGSFN the value was 4.94 ± 0.065; for YVRGSDGSKKPWVYSAVGIF, -0.793 ± 1.1.
Same read-out and setting: then YVTCRCRYYLSFVIPIFWKR, with -0.657 ± 0.25; and YVWRYVRPLVLAIDCVVAR, with 0.001 ± 0.42.
Substance YVYEIDYSRFQFCARWVGWA had an amyloid nucleation score of 0.597 ± 0.48.
YWCFAI displayed an amyloid nucleation score of -0.349 ± 0.26.
On to YWFFNWEWSGLVVYVGRFSA, for which the amyloid nucleation score entry was “inactive”.
The same measure, in the same setting: for YWFKSFSWFPVNIVIYNMEK the value was 5 ± 0.094.
Still for that read-out and setting: then YWGIRVCSDFGIPEFRTS, with 2.05 ± 0.12; and YWKVCRM, with 0.356 ± 0.74; and YWSRRAYCFCSAFFYNTGFF, with 1.53 ± 0.19.
Regarding YWTNPYEMFISHYNKVFAFF, the amyloid nucleation score was -0.436 ± 1.1.
In turn, YYAGLVTSDWNTRSLGGMCE came in with an amyloid nucleation score of -0.506 ± 1.
As for YYDFVVNGGDGLSIEYNSRG, the amyloid nucleation score was found to be 0.405 ± 0.74.
On the same count and under the same terms, then YYFFCVNGGHDMGAILNMLW, with 6.94 ± 0.086; and YYFNVLFSCYEEWFMFSSTS, with “inactive”.
On the same count and under the same terms, then YYICDLLHSRCEVKLD, with -0.551 ± 0.37; and YYLTT, with -1.6 ± 1.
The same measure, in the same setting: for YYQEHQTRLWIWSQHGLNAI the value was 0.864 ± 0.19; for YYQSIGLQYSRMKMGCKRND, 0.882 ± 0.18; for YYSFSGRATWGRNKSFMWVA, 0.089 ± 1.1.
As to YYTWCYKKVFGNHWRQDFD, the amyloid nucleation score is -1.23 ± 0.64.
Turning to YYVHQTHVSCLLAVLCPSLK, the amyloid nucleation score amounted to 8.901 ± 0.039.
Regarding YYVSSVLWIRYYQGNRTRSW, the amyloid nucleation score was -0.901 ± 0.44.
